Consider three substances from PMC8615523.

Some targets named below: cpmCarmine185-186; cpmMaroon185-186; cpmMaroon196-186.
Holding throughout (assay): SEC; Ni-NTA eluates injected into a HiLoad 16/60 Superdex 200 pg column; elution with 30 mM Tris-HCl pH 7.4; absorbance at 280 nm
A general note: SEC sorts molecules by how far they enter the pores of the column.

Substance cpmCarmine185-186 displayed a percent monomeric in the assay with cpmCarmine185-186 of 60%.
In the assay with cpmMaroon185-186, cpmMaroon185-186 returned a stoichiometry N of 2.
cpmMaroon196-186: in the assay with cpmMaroon196-186, the percent monomeric is 70%.

One may read the stoichiometry N as the number of molecules, sites or subunits per partner or assembly.
